{"source": "paper PMC3433420", "about": "“Comprehensive Binary Interaction Mapping of SH2 Domains via Fluorescence Polarization Reveals Novel Functional Diversification of ErbB Receptors” (PLoS ONE, 2012)", "test_in_all_cases": "peptide or protein array; SH2/PTB proteins spotted on aldehyde slides, rhodamine peptide titrated in buffer B (20 mM HEPES, 100 mM KCl, 0.1% Tween-20, 5 mM DTT, pH 7.8), 1 h at room temperature; replicate assays", "settings_in_all_cases": "both partners purified", "key": {"[1]": {"target": "T1, ABL1 SH2 domain (human, UniProt P00519 127-217)", "T1 construct": "ABL1, human; source: bacterial expression, purified", "T1 sequence (looked up)": "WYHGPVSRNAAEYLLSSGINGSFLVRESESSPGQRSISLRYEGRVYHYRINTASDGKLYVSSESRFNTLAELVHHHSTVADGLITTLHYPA"}, "[2]": {"target": "T2, PIK3R2 tandem SH2 domains (human, UniProt O00459 1-728)", "T2 construct": "PIK3R2, human; also called PIK3R2-NC; source: bacterial expression, purified", "T2 sequence (O00459 whole entry, the tested form may be a part)": "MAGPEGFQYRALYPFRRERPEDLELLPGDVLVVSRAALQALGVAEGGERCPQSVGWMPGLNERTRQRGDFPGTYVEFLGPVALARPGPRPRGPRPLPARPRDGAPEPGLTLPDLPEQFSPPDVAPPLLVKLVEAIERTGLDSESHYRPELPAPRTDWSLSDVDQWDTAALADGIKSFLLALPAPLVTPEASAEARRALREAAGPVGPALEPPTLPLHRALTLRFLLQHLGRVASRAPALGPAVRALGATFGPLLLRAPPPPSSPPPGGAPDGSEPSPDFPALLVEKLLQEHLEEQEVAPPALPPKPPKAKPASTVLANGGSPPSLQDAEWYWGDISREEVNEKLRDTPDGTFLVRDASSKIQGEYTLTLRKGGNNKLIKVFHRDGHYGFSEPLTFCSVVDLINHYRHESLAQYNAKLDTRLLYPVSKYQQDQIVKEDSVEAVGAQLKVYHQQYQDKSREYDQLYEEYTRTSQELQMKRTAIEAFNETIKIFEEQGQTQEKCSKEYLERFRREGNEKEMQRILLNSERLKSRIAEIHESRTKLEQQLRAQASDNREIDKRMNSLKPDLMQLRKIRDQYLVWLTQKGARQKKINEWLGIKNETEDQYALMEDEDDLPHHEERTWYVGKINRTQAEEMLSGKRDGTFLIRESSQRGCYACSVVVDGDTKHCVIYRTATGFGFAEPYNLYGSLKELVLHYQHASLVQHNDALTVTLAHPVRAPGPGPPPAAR"}, "[3]": {"target": "T3, VAV1 SH2 domain (human, UniProt P15498 671-765)", "T3 construct": "VAV1, human; source: bacterial expression, purified", "T3 sequence (looked up)": "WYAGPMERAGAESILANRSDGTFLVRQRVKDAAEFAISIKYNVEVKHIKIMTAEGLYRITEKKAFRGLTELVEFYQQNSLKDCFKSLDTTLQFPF"}, "[4]": {"target": "T4, SYK N-terminal SH2 domain (human)", "T4 construct": "SYK, human; source: bacterial expression, purified"}, "[5]": {"target": "T5, PIK3R3 C-terminal SH2 domain (human)", "T5 construct": "PIK3R3, human; source: bacterial expression, purified"}, "[6]": {"target": "T6, GRB7 SH2 domain (human, UniProt Q14451 431-527)", "T6 construct": "GRB7, human; source: bacterial expression, purified", "T6 sequence (Q14451 431-527)": "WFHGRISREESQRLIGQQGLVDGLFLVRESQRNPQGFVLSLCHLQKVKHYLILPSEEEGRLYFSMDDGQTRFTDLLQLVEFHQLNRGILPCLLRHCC"}, "[7]": {"target": "T7, RASA1 C-terminal SH2 domain (human)", "T7 construct": "RASA1, human; source: bacterial expression, purified", "T7 sequence (P20936 whole entry, looked up)": "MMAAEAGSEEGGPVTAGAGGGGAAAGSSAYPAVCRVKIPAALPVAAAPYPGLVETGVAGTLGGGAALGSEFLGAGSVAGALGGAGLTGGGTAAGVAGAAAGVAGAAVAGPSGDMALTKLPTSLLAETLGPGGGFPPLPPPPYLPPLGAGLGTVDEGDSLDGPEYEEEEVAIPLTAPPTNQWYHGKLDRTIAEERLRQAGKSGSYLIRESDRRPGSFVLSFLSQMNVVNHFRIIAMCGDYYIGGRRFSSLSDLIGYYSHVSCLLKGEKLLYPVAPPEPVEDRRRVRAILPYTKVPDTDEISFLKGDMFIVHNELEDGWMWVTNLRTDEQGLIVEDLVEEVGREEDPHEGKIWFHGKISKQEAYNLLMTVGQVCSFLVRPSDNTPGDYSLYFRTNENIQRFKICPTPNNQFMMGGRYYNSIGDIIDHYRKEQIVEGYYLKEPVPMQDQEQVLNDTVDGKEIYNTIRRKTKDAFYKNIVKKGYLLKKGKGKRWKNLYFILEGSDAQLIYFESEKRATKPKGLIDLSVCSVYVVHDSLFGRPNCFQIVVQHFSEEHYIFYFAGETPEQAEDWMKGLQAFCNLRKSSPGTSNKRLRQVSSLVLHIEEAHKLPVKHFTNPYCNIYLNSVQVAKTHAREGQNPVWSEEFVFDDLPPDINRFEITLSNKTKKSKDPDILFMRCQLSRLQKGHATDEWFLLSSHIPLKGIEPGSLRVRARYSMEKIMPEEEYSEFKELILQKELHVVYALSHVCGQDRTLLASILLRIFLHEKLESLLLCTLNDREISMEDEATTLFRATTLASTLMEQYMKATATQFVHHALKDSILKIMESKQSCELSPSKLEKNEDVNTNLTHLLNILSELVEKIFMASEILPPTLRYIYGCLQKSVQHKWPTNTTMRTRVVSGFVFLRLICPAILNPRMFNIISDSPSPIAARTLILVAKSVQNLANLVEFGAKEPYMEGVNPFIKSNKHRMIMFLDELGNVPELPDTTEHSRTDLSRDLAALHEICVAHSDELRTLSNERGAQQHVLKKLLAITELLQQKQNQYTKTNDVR"}, "[8]": {"target": "T8, SHC1 domain construct (human)", "T8 chain": "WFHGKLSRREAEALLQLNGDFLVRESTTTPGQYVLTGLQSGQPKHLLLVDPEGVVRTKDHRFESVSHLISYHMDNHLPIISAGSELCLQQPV"}}, "note": "Several values for one entry are separate records, joined by “and”; a condition that tells them apart may be missing. Equal values may be shown once. Non-standard residues stand in square brackets, D forms with d. No end group written: not given here. pY = N[C@@H](Cc1ccc(OP(=O)(O)O)cc1)C(=O)O; Rhodamine = not defined here", "data": [{"binder": "Rhodamine-ETDG[pY]VAPLTCSD (reading uncertain)", "note": "[ErbB2 pY1127 phosphopeptide, rhodamine-labelled, for protein microarrays]", "values": [{"measurement": "Kd", "setting": "[1]", "value": "529 nM and 301 nM"}, {"measurement": "Kd", "setting": "[2]", "value": "10.6 nM and 4.66 nM"}, {"measurement": "Kd", "setting": "[3]", "value": "186 nM and 91.6 nM"}, {"measurement": "Kd", "setting": "[4]", "value": "3210 nM and 2330 nM"}, {"measurement": "Kd", "setting": "[5]", "value": "2040 nM and 1210 nM"}, {"measurement": "Kd", "setting": "[6]", "value": "1600 nM and 2530 nM"}, {"measurement": "Kd", "setting": "[7]", "value": 1210, "unit": "nM"}, {"measurement": "Kd", "setting": "[8]", "value": "820 nM and 978 nM"}]}]}
